# Experimental data from patent publication US20110189093A1, “PROSTATE SPECIFIC MEMBRANE ANTIGEN ANTIBODIES AND ANTIGEN BINDING FRAGMENTS” (PROSCAN RX PHARMA, priority 2008, published 2011).
# B1: PSf42.3: anti-PSMA monoclonal antibody; light chain variable SEQ ID NO:49, heavy chain variable SEQ ID NO:50 (antibody, V domains shown)
# VH: EVQLQQSGAELAKPGASVKLSCTGSGFNIKDTYMHWVKQRPEQGLEWIGGIDPETGNTKFDPRFQDKATITSDTSSNTVLLQLSSLTSEDTAVYYCANLGRPFAHWGQGTTVTVS
# VL: HSADPVSISCKSSQSLLHRDGKTYLNWVFQRPGQSPQRLIYLVSLVDSGVPDRFTGSGSGTDFTLKINRVEAEDLGVYYCWQGTHFPRTFGGGTKLEIKRA
# B2: PSf42.4: anti-PSMA monoclonal antibody; light chain variable SEQ ID NO:51, heavy chain variable SEQ ID NO:52 (antibody, V domains shown)
# VH: EVKLQQSGAELVKPGASVKLSCTASGFSIRDTYMHWVRQRPEQGLEWITGIDPENGNSKYAPRFQDKATIIADTSSNTVHLQLDTLTSEDTAVYYCTRELAYWGQGTTVTVS
# VL: DILMTQSPLTLSVIIGQPASFSCKSSHSLLHRDGRTYLNWLLQRPGQSPQRLIYLVSKLDSGVPDRFTGSGSGTDFTLKISRVEAEDLGVYYCWQGTHFPRTFGGGTKLEIKRA
# B3: PSf42.1: anti-PSMA monoclonal antibody; light chain variable SEQ ID NO:45, heavy chain variable SEQ ID NO:46 (antibody, V domains shown)
# VH: EVQLEESGAEFVRPGAAVKLSCTVSGLNIKDSYLHWVKQRPEQGLEWIGGIDPANGDVEYDPKFQGKAAITADTSSNTAYLRLSSLTSEDTAVYYCAPFPYWGAGTTVTVS
# VL: B2 VL
# Test system: 22 different tumor types
# Assay: Immunohistochemistry on tissue microarrays of tumor types
# Settings: Astrocytoma
# Protocol: (§1) Tissue and tumor specificity of mAbs: to compare the tissue and tumor specificity of monoclonal antibodies of the present invention, tissue microarrays of 30 different normal tissues (Biochain) and 22 different tumor types (Dako) including prostate cancer was used in order to characterize their recognition specificity. The immunohistochemistry was performed on antigen retrieved, formalin fixed, paraffin embedded material. Anti-PSMA mAbs J591 (ATCC HB-12126) and 7E11 (ATCC HB-10494) were used as references. Formalin fixed paraffin embedded […] sections were subjected to antigen retrieval in basic antigen retrieval solution (BD Pharmingen pH 9.5) in a microwavable pressure cooker for 10 min, cooled and equilibrated to 0.01M phosphate buffered saline (PBS) pH 7.4. Staining was carried out at room temperature in a humidified chamber. Endogenous peroxidases were inactivated with a 1% solution of H2O2 for 20 min, blocked with 5% normal goat serum (NGS) for 30 min and incubated with primary monoclonal antibodies (mAbs) diluted in PBS; 2% NGS overnight. Antibody binding to tissue sections was detected by the sequential addition of the following reagents followed by washing in PBS: goat anti-mouse IgG (H+L) (ICN) secondary antibody diluted 1:100 in PBS; 2% NGS for 1 hr, a complex of a bi-specific mAb mouse anti-peroxidase and horse radish peroxidase for 1 hr, and 3,3-diaminobenzidene tetrahydrochloride (DAB) at 0.6 mg/ml in PBS; 2% NGS; 0.01% H2O2 as chromogen. The primary antibodies were purified mAbs used at concentrations optimized in dilution experiments. […] Mouse IgG mAb was used at a concentration of 0.2 μg/ml and served as a negative control for the primary antibodies. Tissue samples included organ confined and metastatic prostate cancer, HGPIN and normal prostate tissues drawn from radical prostatectomies, transurethral resections and autopsy material.
row,Molecule,No. of positive cases/total no. of cases studied
1,B1,0/2
2,B2,0/2
3,B3,0/2

# Same assay, conditions: Breast carcinoma
row,Molecule,No. of positive cases/total no. of cases studied
1,B1,0/2
2,B2,0/2
3,B3,0/2

# Same assay, conditions: Carcinoid
row,Molecule,No. of positive cases/total no. of cases studied
1,B1,0/3
2,B2,0/3
3,B3,0/3

# Same assay, conditions: Colonic adenocarcinoma
row,Molecule,No. of positive cases/total no. of cases studied
1,B1,0/2
2,B2,0/2
3,B3,0/2

# Same assay, conditions: Epithelioid sarcoma
row,Molecule,No. of positive cases/total no. of cases studied
1,B1,0/1
2,B2,0/1
3,B3,0/1

# Same assay, conditions: Ewing's sarcoma
row,Molecule,No. of positive cases/total no. of cases studied
1,B1,0/1
2,B2,0/1
3,B3,0/1

# Same assay, conditions: Gastric carcinoma
row,Molecule,No. of positive cases/total no. of cases studied
1,B1,0/2
2,B2,0/2
3,B3,0/2

# Same assay, conditions: Hepatocellular carcinoma
row,Molecule,No. of positive cases/total no. of cases studied
1,B1,0/2
2,B2,0/2
3,B3,0/2

# Same assay, conditions: Hodgkin's lymphoma
row,Molecule,No. of positive cases/total no. of cases studied
1,B1,2/13
2,B2,5/13
3,B3,1/13

# Same assay, conditions: Leiomyoma
row,Molecule,No. of positive cases/total no. of cases studied
1,B1,0/2
2,B2,0/2
3,B3,0/2

# Same assay, conditions: Lung adeno carcinoma
row,Molecule,No. of positive cases/total no. of cases studied
1,B1,0/2
2,B2,0/2
3,B3,0/2

# Same assay, conditions: Lymphoma
row,Molecule,No. of positive cases/total no. of cases studied
1,B1,0/3
2,B2,0/3
3,B3,0/3

# Same assay, conditions: Malignant fibrous histiocytoma
row,Molecule,No. of positive cases/total no. of cases studied
1,B1,0/1
2,B2,0/1
3,B3,0/1

# Same assay, conditions: Melanoma
row,Molecule,No. of positive cases/total no. of cases studied
1,B1,2/4
2,B2,2/4
3,B3,0/3

# Same assay, conditions: Mesothelioma
row,Molecule,No. of positive cases/total no. of cases studied
1,B1,0/2
2,B2,0/2
3,B3,0/2

# Same assay, conditions: Ovarian carcinoma
row,Molecule,No. of positive cases/total no. of cases studied
1,B1,0/2
2,B2,0/2
3,B3,0/2

# Same assay, conditions: Pancreatic carcinoma
row,Molecule,No. of positive cases/total no. of cases studied
1,B1,0/2
2,B2,0/2
3,B3,0/2

# Same assay, conditions: Prostatic carcinoma
row,Molecule,No. of positive cases/total no. of cases studied
1,B1,1/1
2,B2,1/1
3,B3,1/1

# Same assay, conditions: Renal cell carcinoma
row,Molecule,No. of positive cases/total no. of cases studied
1,B1,0/2
2,B2,0/2
3,B3,0/2

# Same assay, conditions: Rhabdosarcoma
row,Molecule,No. of positive cases/total no. of cases studied
1,B1,2/2
2,B2,2/2
3,B3,0/2

# Same assay, conditions: Thyroid carcinoma
row,Molecule,No. of positive cases/total no. of cases studied
1,B1,0/2
2,B2,0/2
3,B3,0/2

# Same assay, conditions: Undifferentiated carcinoma
row,Molecule,No. of positive cases/total no. of cases studied
1,B1,0/4
2,B2,0/4
3,B3,0/4

# Test system: 30 different normal tissues
# Assay: Immunohistochemistry on tissue microarrays of normal tissues
# Settings: Adipose
# Protocol: as §1
row,Molecule,No. of positive cases/total no. of cases studied
1,B1,0/2
2,B2,0/2
3,B3,0/2

# Same assay, conditions: Bladder
row,Molecule,No. of positive cases/total no. of cases studied
1,B1,0/2
2,B2,0/2
3,B3,0/2

# Same assay, conditions: Brain
row,Molecule,No. of positive cases/total no. of cases studied
1,B1,0/2
2,B2,0/2
3,B3,0/2

# Same assay, conditions: Breast
row,Molecule,No. of positive cases/total no. of cases studied
1,B1,0/2
2,B2,0/2
3,B3,0/2

# Same assay, conditions: Cerebullum
row,Molecule,No. of positive cases/total no. of cases studied
1,B1,0/2
2,B2,0/2
3,B3,0/2

# Same assay, conditions: Cervix
row,Molecule,No. of positive cases/total no. of cases studied
1,B1,0/2
2,B2,0/2
3,B3,0/2

# Same assay, conditions: Colon
row,Molecule,No. of positive cases/total no. of cases studied
1,B1,0/2
2,B2,0/2
3,B3,0/2

# Same assay, conditions: Diaphragm
row,Molecule,No. of positive cases/total no. of cases studied
1,B1,2/2
2,B2,2/2
3,B3,2/2

# Same assay, conditions: Duodenum
row,Molecule,No. of positive cases/total no. of cases studied
1,B1,2/2
2,B2,0/2
3,B3,0/2

# Same assay, conditions: Esophagus
row,Molecule,No. of positive cases/total no. of cases studied
1,B1,2/2
2,B2,0/2
3,B3,0/2

# Same assay, conditions: Gallbladder
row,Molecule,No. of positive cases/total no. of cases studied
1,B1,0/2
2,B2,0/2
3,B3,0/2

# Same assay, conditions: Heart
row,Molecule,No. of positive cases/total no. of cases studied
1,B1,0/2
2,B2,0/2
3,B3,0/2

# Same assay, conditions: Ileum
row,Molecule,No. of positive cases/total no. of cases studied
1,B1,2/2
2,B2,2/2
3,B3,0/2

# Same assay, conditions: Jejenum
row,Molecule,No. of positive cases/total no. of cases studied
1,B1,2/2
2,B2,2/2
3,B3,0/2

# Same assay, conditions: Kidney
row,Molecule,No. of positive cases/total no. of cases studied
1,B1,2/2
2,B2,1/2
3,B3,0/2

# Same assay, conditions: Liver
row,Molecule,No. of positive cases/total no. of cases studied
1,B1,0/2
2,B2,0/2
3,B3,0/2

# Same assay, conditions: Lung
row,Molecule,No. of positive cases/total no. of cases studied
1,B1,0/2
2,B2,0/2
3,B3,0/2

# Same assay, conditions: Ovary
row,Molecule,No. of positive cases/total no. of cases studied
1,B1,0/2
2,B2,0/2
3,B3,0/2

# Same assay, conditions: Pancreas
row,Molecule,No. of positive cases/total no. of cases studied
1,B1,0/2
2,B2,0/2
3,B3,0/2

# Same assay, conditions: Placenta
row,Molecule,No. of positive cases/total no. of cases studied
1,B1,1/4
2,B2,1/4
3,B3,0/4

# Same assay, conditions: Rectum
row,Molecule,No. of positive cases/total no. of cases studied
1,B1,0/2
2,B2,0/2
3,B3,0/2

# Same assay, conditions: Skeletal muscle
row,Molecule,No. of positive cases/total no. of cases studied
1,B1,2/2
2,B2,2/2
3,B3,2/2

# Same assay, conditions: Skin
row,Molecule,No. of positive cases/total no. of cases studied
1,B1,0/2
2,B2,0/2
3,B3,0/2

# Same assay, conditions: Spleen
row,Molecule,No. of positive cases/total no. of cases studied
1,B1,0/2
2,B2,0/2
3,B3,0/2

# Same assay, conditions: Stomach
row,Molecule,No. of positive cases/total no. of cases studied
1,B1,0/2
2,B2,0/2
3,B3,0/2

# Same assay, conditions: Testis
row,Molecule,No. of positive cases/total no. of cases studied
1,B1,0/2
2,B2,0/2
3,B3,0/2

# Same assay, conditions: Thymus
row,Molecule,No. of positive cases/total no. of cases studied
1,B1,0/2
2,B2,0/2
3,B3,0/2

# Same assay, conditions: Thyroid
row,Molecule,No. of positive cases/total no. of cases studied
1,B1,0/2
2,B2,0/2
3,B3,0/2

# Same assay, conditions: Tonsil
row,Molecule,No. of positive cases/total no. of cases studied
1,B1,0/2
2,B2,0/2
3,B3,0/2

# Same assay, conditions: Uterus
row,Molecule,No. of positive cases/total no. of cases studied
1,B1,0/2
2,B2,0/2
3,B3,0/2
